Reference: PMC4263767, “IL-28B is a Key Regulator of B- and T-Cell Vaccine Responses against Influenza” (PLoS Pathogens, 2014)
Entries after “also recorded” stand apart in the source; their conditions may differ.

Assays:
[1] = system: B-cells in PBMCs from healthy volunteers; assay: H1N1-stimulated B-cell proliferation (Cell Trace Violet); type: cell-based, human
[2] = system: CD3+CD4+ T-cells in PBMCs from transplant recipients; type: cell-based, human
[3] = system: PBMCs from transplant recipients; assay: Cytokine release by H1N1-stimulated transplant recipient PBMCs, overnight (luminex); type: cell-based, human
[4] = system: T-cells, monocytes and macrophages; settings: ref [42], [43]; cited from earlier work
Text: The IFN-λ family (Interleukin-28A, -28B, -29, and IFN-λ4) is a recently described class of IFNs with antiviral properties similar to IFN-α and -β [14]–[17]. IFN-λ is known to induce phosphorylation of STAT-1 and -2 via binding to its receptor, which is a heterodimer consisting of the IL-28 receptor alpha subunit (IL28RA) and IL-10 receptor beta subunit (IL10RB). […] Furthermore, IFN-λs induced the development of T-regu ... || IL-28B (IFN-λ3) belongs to the family of IFN-lambdas and shares antiviral properties similar to IFN-α via induction of interferon stimulated genes (ISGs) such as MX1 or OAS1 [41]. […] IL-12 is a key cytokine for the induction of Th1 cells and cytotoxic lymphocytes, [43]. SNPs in the IL-28B gene (minor-allele genotypes) have been associated with reduced IL-28B expression, [29]–[33], which could impact adaptive immune functions during vaccination. One limitation of our study is that we d ...

[5] = system: PBMCs from healthy volunteers; assay: Cytokine release by H1N1-stimulated healthy volunteer PBMCs, 5 days (luminex); type: cell-based, human; settings: 5-day H1N1
[6] = IL-28B 100 ng/mL, overnight H1N1, p=0.04
[7] = IL-28B 100 ng/mL, overnight H1N1, p=0.39
[8] = IL-28B 100 ng/mL, overnight H1N1, p=1.00
[9] = IL-28B 100 ng/mL, overnight H1N1, transplant PBMCs, median (IQR)

B1: IL-28B: recombinant IL-28B, a member of the interferon (IFN)-λ family (protein)
chain: VPVARLRGALPDARGCHIAQFKSLSPQELQAFKRAKDALEESLLLKDCKCRSRLFPRTWDLRQLQVRERPVALEAELALTLKVLEATADTDPALGDVLDQPLHTLHHILSQLRACIQPQPTAGPRTRGRLHHWLHRLQEAPKKESPGCLEASVTFNLFRLLTRDLNCVASGDLCV
modifications: left off: His tag, end not stated, kept
notes: recombinant IL-28B, a member of the interferon (IFN)-λ family
Q: With B1 as the molecule, how does the “reduction in proliferation capacity of memory B-cells” value ([1]; 5-day H1N1, n = 6) read?
A: 70%

Q: And the “H1N1-stimulated B-cell proliferation (in words)” value ([1]; IL-28B 1, 10, 100 ng/mL, 5-day H1N1, n = 6)?
A: dose-dependent decrease

Q: What about the “reduction of H1N1-stimulated B-cell proliferation” value ([1]; abstract, in vitro) of the same molecule?
A: 70%

Q: And the “fold reduction in IL-4 production by CD3+CD4+ T-cells” value ([2]; IL-28B 100 ng/mL, 2 h before overnight H1N1, transplant recipients n = 47)?
A: > 2 -fold

Q: What about the “sensitivity of IL-4 production to IL-28B by genotype” value ([2]; minor allele (TG or GG) PBMCs, 45 transplant recipients) of the same molecule?
A: particularly pronounced in patients with a minor allele genotype; also recorded: strong sensitivity to IL-28B

Q: What about the “H1N1-stimulated Th1-cytokine expression (IFN-γ, IL6)” value ([3]; IL-28B 100 ng/mL, 2 h before overnight H1N1, n = 36) of the same molecule?
A: significant increase

Q: What about the “IFN-α, ratio IL-28B/no IL-28B” value ([3]; IL-28B 100 ng/mL, overnight H1N1, p=0.001) of the same molecule?
A: 2.9

Q: And the “IFN-γ, ratio IL-28B/no IL-28B” value [3, 6]?
A: 2.1

Q: And the “MIP-1α, ratio IL-28B/no IL-28B” value [3, 6]?
A: 1.8

Q: And the “sCD40-L, ratio IL-28B/no IL-28B” value [3, 6]?
A: 1.0

Q: And the “IL-6, ratio IL-28B/no IL-28B” value ([3]; IL-28B 100 ng/mL, overnight H1N1, p=0.05)?
A: 2.4

Q: What about the “IP-10, ratio IL-28B/no IL-28B” value ([3]; IL-28B 100 ng/mL, overnight H1N1, p=0.14) of the same molecule?
A: 1.0

Q: What about the “MCP-3, ratio IL-28B/no IL-28B” value ([3]; IL-28B 100 ng/mL, overnight H1N1, p=0.33) of the same molecule?
A: 1.2

Q: What about the “Fractalkine, ratio IL-28B/no IL-28B” value [3, 7] of the same molecule?
A: 5.0

Q: And the “TNF-α, ratio IL-28B/no IL-28B” value [3, 7]?
A: 1.9

Q: And the “IL-1β, ratio IL-28B/no IL-28B” value ([3]; IL-28B 100 ng/mL, overnight H1N1, p=0.44)?
A: 1.0

Q: And the “MCP-1, ratio IL-28B/no IL-28B” value ([3]; IL-28B 100 ng/mL, overnight H1N1, p=0.61)?
A: 1.0

Q: And the “IL-2, ratio IL-28B/no IL-28B” value ([3]; IL-28B 100 ng/mL, overnight H1N1, p=0.86)?
A: 1.1

Q: And the “IL-4, ratio IL-28B/no IL-28B” value ([3]; IL-28B 100 ng/mL, overnight H1N1, p=0.92)?
A: 1.0

Q: And the “GRO, ratio IL-28B/no IL-28B” value [3, 8]?
A: 1.0

Q: What about the “IL-5, ratio IL-28B/no IL-28B” value [3, 8] of the same molecule?
A: 1.0

Q: What about the “IL-9, ratio IL-28B/no IL-28B” value [3, 8] of the same molecule?
A: 1.0

Q: What about the “IL-13, ratio IL-28B/no IL-28B” value [3, 8] of the same molecule?
A: 1.0

Q: And the Fractalkine [3, 9]?
A: 16.1 (3.2-60.2) pg/mL

Q: What about the GRO [3, 9] of the same molecule?
A: 3.2 (3.2-3.2) pg/mL

Q: What about the IFN-α [3, 9] of the same molecule?
A: 1290.8 (502.4-1969.9) pg/mL

Q: And the IFN-γ [3, 9]?
A: 48.0 (13.9-133.3) pg/mL

Q: And the IL-1β [3, 9]?
A: 0.6 (0.6-4.0) pg/mL

Q: What about the IL-2 [3, 9] of the same molecule?
A: 61.5 (6.0-168.9) pg/mL

Q: And the IL-4 [3, 9]?
A: 0.6 (0.6-1.5) pg/mL

Q: And the IL-5 [3, 9]?
A: 0.6 (0.6-0.6) pg/mL

Q: And the IL-6 [3, 9]?
A: 104.0 (15.0-156.6) pg/mL

Q: What about the IL-9 [3, 9] of the same molecule?
A: 0.6 (0.6-0.6) pg/mL

Q: And the IL-13 [3, 9]?
A: 0.6 (0.6-0.9) pg/mL

Q: And the IP-10 [3, 9]?
A: 8336.4 (7362.5-9289.1) pg/mL

Q: And the MCP-1 [3, 9]?
A: 0.5 (0.5-827.4) pg/mL

Q: And the MCP-3 [3, 9]?
A: 760.9 (398.3-2500.5) pg/mL

Q: And the MIP-1α [3, 9]?
A: 321.4 (173.7-485.3) pg/mL

Q: And the TNF-α [3, 9]?
A: 23.2 (0.7-44.8) pg/mL

Q: And the sCD40-L [3, 9]?
A: 0.6 (0.6-77.7) pg/mL

Q: And the “Th1-cytokines (in words, abstract)” value ([3]; in vitro)?
A: increased Th1-cytokines (e.g. IFN-γ)

Q: And the “IL-12 production in monocytes and macrophages” value [4]?
A: induce IL-12 production in monocytes and macrophages

Q: And the “production of B-cell trophic and Th2 cytokines (in words)” value ([5]; n = 9)?
A: significant decrease in the production of cytokines trophic for B-cells such as GRO, Fractalkine, and Th2-cytokines (IL-4, IL-5, IL-9, and IL-13)

Q: What about the “IFN-α2, ratio IL28/no IL28” value ([5]; p=0.004) of the same molecule?
A: 1.7

Q: And the “sIL2Ra, ratio IL28/no IL28” value ([5]; p=0.004)?
A: 0.6

Q: What about the “Fractalkine, ratio IL28/no IL28” value ([5]; p=0.008) of the same molecule?
A: 0.3

Q: What about the “GRO, ratio IL28/no IL28” value ([5]; p=0.008) of the same molecule?
A: 0.0

Q: What about the “IL-9, ratio IL28/no IL28” value ([5]; p=0.008) of the same molecule?
A: 0.2

Q: And the “sCD40L, ratio IL28/no IL28” value ([5]; p=0.01)?
A: 0.4

Q: What about the “IL-5, ratio IL28/no IL28” value ([5]; p=0.02) of the same molecule?
A: 0.0

Q: What about the “IL-13, ratio IL28/no IL28” value ([5]; p=0.02) of the same molecule?
A: 0.6

Q: What about the “IL-4, ratio IL28/no IL28” value ([5]; p=0.03) of the same molecule?
A: 0.5

Q: What about the “IL-6, ratio IL28/no IL28” value ([5]; p=0.03) of the same molecule?
A: 1.3

Q: And the “TGF-α, ratio IL28/no IL28” value ([5]; p=0.03)?
A: 1.3

Q: What about the “IL-1β, ratio IL28/no IL28” value ([5]; p=0.04) of the same molecule?
A: 1.9

Q: And the “IP-10, ratio IL28/no IL28” value ([5]; p=0.08)?
A: 0.3

Q: What about the “FLT3, ratio IL28/no IL28” value ([5]; p=0.11) of the same molecule?
A: 0.5

Q: And the “IL-3, ratio IL28/no IL28” value ([5]; p=0.16)?
A: 0.3

Q: And the “TNF-β, ratio IL28/no IL28” value ([5]; p=0.16)?
A: 0.6

Q: And the “IL-15, ratio IL28/no IL28” value ([5]; p=0.17)?
A: 0.9

Q: And the “MCP-3, ratio IL28/no IL28” value ([5]; p=0.25)?
A: 1.1

Q: What about the “PDGF AA, ratio IL28/no IL28” value ([5]; p=0.25) of the same molecule?
A: 1.0

Q: What about the “FGF2, ratio IL28/no IL28” value ([5]; p=0.31) of the same molecule?
A: 0.8

Q: What about the “GM-CSF, ratio IL28/no IL28” value ([5]; p=0.38) of the same molecule?
A: 0.7

Q: What about the “IFN-γ, ratio IL28/no IL28” value ([5]; p=0.43) of the same molecule?
A: 0.9
